Test results reported in patent publication US20260152561A1.

Legend:
[1] = molecular target: PD-L1 on tumor cells (EMT6-PD-L1, U2OS) (UniProt Q9NZQ7); assay: cell-based or functional assay
[2] = molecular target: MICA/MICB on tumor cells (MGC-803, U2OS); assay: cell-based or functional assay

UniProt Q9NZQ7, sequence (Q9NZQ7 19-290 limits assumed): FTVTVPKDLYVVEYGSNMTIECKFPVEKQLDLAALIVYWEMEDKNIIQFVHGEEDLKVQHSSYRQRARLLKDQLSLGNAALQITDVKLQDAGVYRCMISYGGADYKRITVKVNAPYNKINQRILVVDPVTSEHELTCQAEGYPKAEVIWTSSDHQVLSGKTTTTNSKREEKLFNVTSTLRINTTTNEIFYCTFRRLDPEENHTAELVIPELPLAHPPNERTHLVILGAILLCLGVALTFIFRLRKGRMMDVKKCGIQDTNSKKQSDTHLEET

**Q.** What does the source list for “dual-targeting chimeric antigen receptor PD1-DAP10-41BB-P2A-NKG2D-IgG4-CD28-41BB-CD3ζ, expressed on NK92 cells (PN-CAR-NK92)”?
**A.** cytotoxicity (luciferase killing assay, effector-to-target ratio 5:1) on U2OS cells [1]: 6 fold; cytotoxicity (luciferase killing assay, effector-to-target ratio 5:1) on U2OS cells [2]: 6 fold
